Data reported in patent US20240409960A1, “METHOD FOR CONTROLLING PROTEIN FUNCTION” (The University of Tokyo, priority 2021, published 2024).

B1: SPEED-Cre: split Cre with a DD sequence on each of the N-terminal and C-terminal fragments; SEQ ID No: 10 (protein)
chain: MVSKYPYDVPDYARSGGSGGMISLIAALAVDYVIGMENAMPWNLPADLAWFKRNTLNKPVIMGRHTWESIGRPLPGRKNIILSSQPSTDDRVTWVKSVDEAIAACGDVPEIMVIGGGRVIEQFLPKAQKLYLTHIDAEVEGDTHFPDYEPDDWESVFSEFHDADAQNSHSYCFEILERRGGSGGSGGKLVPKKKRKVGGSNLLTVHQNLPALPVDATSDEVRKNLMDMFRDRQAFSEHTWKMLLSVCRSWAAWCKLNNRKWFPAEPEDVRDYLLYLQARGLAVKTIQQHLGQLNMLHRRSGLPRPSDSNAVSLVMRRIRKENVDAGERAKQALAFERTDFDQVRSLMENSGSGSGATNFSLLKQAGDVEENPGPLEDRCQDIRNLAFLGIAYNTLLRIAEIARIRVKDISRTDGGRMLIHIGRTKTLVSTAGVEKALSLGVTKLVERWISVSGVADDPNNYLFCRVRKNGVAAPSATSQLSTRALEGIFEATHRLIYGAKDDSGQRYLAWSGHSARVGAARDMARAGVSIPEIMQAGGWTNVNIVMNYIRNLDSETGAMVRLLEDGDGGSGGSGGMISLIAALAVDYVIGMENAMPWNLPADLAWFKRNTLNKPVIMGRHTWESIGRPLPGRKNIILSSQPSTDDRVTWVKSVDEAIAACGDVPEIMVIGGGRVIEQFLPKAQKLYLTHIDAEVEGDTHFPDYEPDDWESVFSEFHDADAQNSHSYCFEILERR
modifications: MISC_FEATURE - HAtag; DOMAIN 21..179 Degradation Domain; SIGNAL 190..197 Nuclear Localization Signal; MISC_FEATURE - N-terminal side of Cre; MISC_FEATURE - P2A; MISC_FEATURE - C-terminal side of Cre; DOMAIN 576..734 Degradation Domain; Bacteriophage P1
B2: split-Cre: Cre split between Ser152 and Asp153 into N-terminal (a.a. 2-152) and C-terminal (a.a. 153-343) self-assembling fragments; SEQ ID No: 8 (protein)
chain: MVSKYPYDVPDYARSGGSGGKLVPKKKRKVGGSNLLTVHQNLPALPVDATSDEVRKNLMDMFRDRQAFSEHTWKMLLSVCRSWAAWCKLNNRKWFPAEPEDVRDYLLYLQARGLAVKTIQQHLGQLNMLHRRSGLPRPSDSNAVSLVMRRIRKENVDAGERAKQALAFERTDFDQVRSLMENSGSGSGATNFSLLKQAGDVEENPGPLEDRCQDIRNLAFLGIAYNTLLRIAEIARIRVKDISRTDGGRMLIHIGRTKTLVSTAGVEKALSLGVTKLVERWISVSGVADDPNNYLFCRVRKNGVAAPSATSQLSTRALEGIFEATHRLIYGAKDDSGQRYLAWSGHSARVGAARDMARAGVSIPEIMQAGGWTNVNIVMNYIRNLDSETGAMVRLLEDGD
modifications: MISC_FEATURE - HAtag; SIGNAL 23..30 Nuclear Localization Signal; MISC_FEATURE - N-terminal of Cre; MISC_FEATURE - P2A; MISC_FEATURE - C-terminal side of Cre; Bacteriophage P1
B3: DD-sasCre: sasCre tagged with a single DD sequence on the N terminal side of Cre; SEQ ID No: 9 (protein)
chain: MVSKYPYDVPDYARSGGSGGMISLIAALAVDYVIGMENAMPWNLPADLAWFKRNTLNKPVIMGRHTWESIGRPLPGRKNIILSSQPSTDDRVTWVKSVDEAIAACGDVPEIMVIGGGRVIEQFLPKAQKLYLTHIDAEVEGDTHFPDYEPDDWESVFSEFHDADAQNSHSYCFEILERRGGSGGSGGKLVPKKKRKVGGSNLLTVHQNLPALPVDATSDEVRKNLMDMFRDRQAFSEHTWKMLLSVCRSWAAWCKLNNRKWFPAEPEDVRDYLLYLQARGLAVKTIQQHLGQLNMLHRRSGLPRPSDSNAVSLVMRRIRKENVDAGERAKQALAFERTDFDQVRSLMENSGSGSGATNFSLLKQAGDVEENPGPLEDRCQDIRNLAFLGIAYNTLLRIAEIARIRVKDISRTDGGRMLIHIGRTKTLVSTAGVEKALSLGVTKLVERWISVSGVADDPNNYLFCRVRKNGVAAPSATSQLSTRALEGIFEATHRLIYGAKDDSGQRYLAWSGHSARVGAARDMARAGVSIPEIMQAGGWTNVNIVMNYIRNLDSETGAMVRLLEDGD
modifications: MISC_FEATURE - HAtag; DOMAIN 21..179 Degradation Domain; SIGNAL 190..197 Nuclear Localization Signal; MISC_FEATURE - N-terminal side of Cre; MISC_FEATURE - P2A; MISC_FEATURE - C-terminal side of Cre; Bacteriophage P1
B4: DD-Cre: destabilized Cre tagged with one ecDHFR-derived DD sequence; SEQ ID No: 3 (protein)
chain: MVSKYPYDVPDYARSGGSGGMISLIAALAVDYVIGMENAMPWNLPADLAWFKRNTLNKPVIMGRHTWESIGRPLPGRKNIILSSQPSTDDRVTWVKSVDEAIAACGDVPEIMVIGGGRVIEQFLPKAQKLYLTHIDAEVEGDTHFPDYEPDDWESVFSEFHDADAQNSHSYCFEILERRGGSGGSGGKLVPKKKRKVGGSNLLTVHQNLPALPVDATSDEVRKNLMDMFRDRQAFSEHTWKMLLSVCRSWAAWCKLNNRKWFPAEPEDVRDYLLYLQARGLAVKTIQQHLGQLNMLHRRSGLPRPSDSNAVSLVMRRIRKENVDAGERAKQALAFERTDFDQVRSLMENSDRCQDIRNLAFLGIAYNTLLRIAEIARIRVKDISRTDGGRMLIHIGRTKTLVSTAGVEKALSLGVTKLVERWISVSGVADDPNNYLFCRVRKNGVAAPSATSQLSTRALEGIFEATHRLIYGAKDDSGQRYLAWSGHSARVGAARDMARAGVSIPEIMQAGGWTNVNIVMNYIRNLDSETGAMVRLLEDGD
modifications: MISC_FEATURE - HAtag; DOMAIN 21..179 degradation domain; SIGNAL 190..197 Nuclear Localization Signal; Bacteriophage P1

Legend:
[1] = test system: DNA sequence flanked by two loxP sites (loxP-stop-loxP Fluc reporter) in HEK293 cells; test: luciferase assay of Cre-loxP DNA recombination in HEK293 cells; format: cell-based, human; details: for TMP-dependent DNA recombination activity (induction): TMP 10 nM or 500 nM vs DMSO; for background DNA recombination activity (leakage) in the absence of TMP: luciferase reporter
Text: For constructing a luciferase reporter for detecting Cre-loxP recombinase activity, the polyadenylation signal (poly(A)) repeated sequence (“stop”)) flanked by two loxP sites ([…]: SEQ ID No: 36) in the same orientation was amplified from Addgene plasmid (ID: 22797). Sequence encoding firefly luciferase (Fluc) was amplified from pGL4.31 vector (Promega). The loxP stop-loxP-Fluc construct was inserted into HindIII and XhoI sites in pcDNA3.1 (+) vector containing the CMV promoter.
HEK293T cells (American Type Culture Collection: ATCC) were cultured at 37° C. under 5% CO2 in Dulbecco's Modified Eagle Medium (DMEM; Thermo Fisher Scientific) supplemented with 10% fetal bovine serum (FBS; Thermo Fisher Scientific), 100 units/ml of penicillin and 100 μg/ml of streptomycin (Thermo Fisher Scientific) and 2 mM GlutaMAX (Thermo Fisher Scientific).
For luciferase assay, HEK 293 cells were plated at 25,000 cells per well on a 96-well flat white microplate (Thermo Fisher Scientific), and were then cultured for 24 hours at 37° C. in 5% CO2. The cells were transfected with cDNAs encoding destabilized Cre along with the luciferase reporter (loxP-stop-loxP Fluc), using X-tremeGENE9 reagent (Merck Millipore) at 37° C. The total amount of DNA was 50 ng per well. Twenty-four hours after the transfection, TMP or DMSO was added into the cells, and the cells were further cultured for 24 hours or 48 hours. Just before the luciferase assay, the medium was replaced with Hanks' balanced salt solution (HBSS) (Thermo Fisher Scientific) containing 0.2 mM D-luciferin potassium salt. Bioluminescence measurement was performed for 1 second per well at room temperature using a Centro XS^3 LB 960 plate-reading luminometer (Berthold Technologies).

[2] = test system: loxP-stop-loxP Fluc reporter in mice liver; test: in vivo Cre-loxP recombination, bioluminescence imaging after HTV injection into mice; details: for DNA recombination activity in vivo in the absence of TMP: HTV injection, DMSO I.P., bioluminescence 24 hours after injection; for TMP-dependent DNA recombination activity in vivo: TMP 167 μg/g body weight I.P. 3 hours after HTV injection
Experimental: Experiments using mice were performed in accordance with the Guidelines for Care and Use of Laboratory Animals as stated by the University of Tokyo. In all the experiments, four week-old female Slc: ICR mice (Sankyo Labo Service Corporation, Inc.) were used. The mice were […] with cDNAs encoding destabilized Cre along with the luciferase reporter (loxP-stop-loxP Fluc) at 1:9 ratio, using TransIT-EE Hydrodynamic Delivery Solution (Mirus Bio LLC, Madison). The total amount of the DNA injected into a mouse was 10 μg per mouse. The volume of a delivery solution was set at 0.1 mL per mouse weight (g). After the hydrodynamic (HTV) injection of DNA, the mice were bred for 3 hours, and thereafter, TMP (167 μg/g body weight) or DMSO was intraperitoneally (I.P.) injected into the mice. The total volume of the TMP solution injected into a mouse was 100 μL per mouse weight (g). The intraperitoneally injected mice were bred for further 21 hours. The bioluminescence imaging of the mice was performed 24 hours after the HTV injection of DNA. Prior to the bioluminescence imaging, 100 mM D-luciferin was intraperitoneally injected into the mice. The total volume of the injected D-luciferin solution was 10 μL per mouse weight (g). Three minutes after the D-luciferin injection, the bioluminescence images of the mice were obtained using the Lumazone bioluminescence imager (Nippon Roper) equipped with the Evolve EMCCD camera (Photometrics) for 1 minutes. During the intraperitoneal D-luciferin injection and the bioluminescence imaging, the mice were anaesthetized with isoflurane (Abb Vie) to keep them motionless. The obtained data were analyzed with the SlideBook 4.2 software (Intelligent Innovations Inc.).
Next, the usefulness of SPEED-Cre in a living mouse body, namely, in vivo was examined. Using a hydrodynamic tail vain (HTV) injection method (Liu et al., Gene Ther. 6:1258-1266, 1999), mice liver was we transiently transfected with DD-Cre or SPEED-Cre (FIG. 5a). Three hours after the HTV injection, TMP (167 μg/g body weight) or DMSO was intraperitoneally (I.P.) administered into the DD-Cre- or SPEED-Cre-transfected mice (FIG. 5a). The DNA recombination activity was measured using the bioluminescence of a luciferase reporter as an indicator. […] The DNA recombination ability of DD-Cre in vivo was consistent to the ability in in vitro experiments using the human cell line.

| Molecule | TMP-dependent DNA recombination activity (induction) ([1]; 5 ng expression plasmid, 24 or 48 hours (FIG. 4d)) | background DNA recombination activity (leakage) in the absence of TMP ([1]; HEK293 cells, no TMP) | leakage of DNA recombination activity in the absence of TMP as a function of the amount of expression plasmid ([1]; HEK293 cells, plasmid amount varied, no TMP) | TMP-dependent DNA recombination activity (induction) ([1]; expression plasmid in various amounts, 24 or 48 hours (FIGS. 4f and g)) | DNA recombination activity in vivo in the absence of TMP [2] | TMP-dependent DNA recombination activity in vivo [2] | recombination efficiency of the self-assembled split fragments ([1]; N-terminal (a.a. 2-152) and C-terminal (a.a. 153-343) fragments expressed via P2A in HEK293 cells, no TMP) | TMP-dependent DNA recombination activity ([1]; HEK293 cells transfected with 5 ng of expression plasmid, TMP treatment) | recombination activity after reduction of the transfection amount ([1]; transfection amount reduced by one 400th, HEK293 cells) |
| --- | --- | --- | --- | --- | --- | --- | --- | --- | --- |
| B1 | not less than 10 fold | extremely low level that was comparable to the case of using the pcDNA3.1 empty vector plasmid and the reporter plasmid | maintained a low level | up to 330 fold | suppressed to low, comparable to a negative control group using the pcDNA3.1 empty vector plasmid | high TMP-dependent DNA recombination activity, comparable to the recombination activity of Cre | – | – | – |
| B2 | – | – | – | – | – | – | high recombination efficiency comparable to that of iCre | – | – |
| B3 | – | significantly lower activity leakage than DD-Cre 1.4 | – | – | – | – | – | – | – |
| B4 | – | almost the same level of the recombination activity of iCre | – | – | high DNA recombination activity at the same level as iCre | DNA recombination was not induced | – | does not induce the DNA recombination | remained at almost the same level as that before the reduction of the transfection amount |
